Results on 16 sequences are retold here after the nanobody polyreactivity screen of Harvey et al. (2022).

The series in a line: yeast display, Sf9 membrane polyspecificity reagent, FACS + sequencing; frameworks hold sequencing errors. The method, boiled down: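 A synthetic nanobody library was expressed on Saccharomyces cerevisiae BJ5465 by galactose induction for 36–48 hours. The library was stained for 1 hour at 4 °C with 10% biotinylated, detergent-solubilized Sf9 membrane reagent and enriched with streptavidin microbeads before FACS. Low and high (top ~1%) gates were set on anti-HA fluorescence for expression and streptavidin fluorescence for reagent binding, and each polyreactivity label reflects the gate of origin.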
With “QVQLVESGAGLVQAGGSLRRSCAASGGNFYYNVMGWYRQAPGKERELLAAIDTSGGNRYADSVKGRFTISRDNAKNTVYLQMNSLNPEDTAVYYSAVGAYWYFGIVSYGYDYWGQGTQVTVSS”, the “polyreactivity (PSR sort gate)” value is on record as “low polyreactivity”.

With “QVQLVESGGGLVQAGGSLRLSCAASGRIFVSNTMGWYRQAPGKDWEWVAAITSVGSTNYADSVKGRFTISRDHAKNTVYLQMNSLKPEDTAVYYCNADNPYSDGADSLGNYWGQGTQVTVSS”, the “polyreactivity (PSR sort gate)” value is “low polyreactivity”. In the case of “QVQLVESGGGLVQAGGSLRLSCAASGSTFDVYARGGYRQAPGKERELVAAITSGGTTNYADSVKGRFTLSRDNAKNTVYLQMNSLKPEDTAVYYCAKDSRNVYWDYGYWGQGTQVTVSS” it was “low polyreactivity”; in that of “QVQLVESGGGLVQAGGSLRLSCAASGSIFPYYAMGWYRQAPGKERELVATITYRGGSTNYADSVKGRFTISRDNAKNTVYLQMNSLKPEDTAVYYCAAYGYVLASPDPYSFVKLGYWGQGTQVTVSS”, “low polyreactivity”.

In the case of “QVQLVESGGGLVQAGGSLRLSCAASGITFYDYAMGWYRQAPGKERELVAAISDSGGITYYADSVKGRFTISRDNAKNTVYLQMNSLKPEDTAVYYCNAKSVRRERYKFDYWGQGTQVTVSS”, the “polyreactivity (PSR sort gate)” value was “high polyreactivity”.

Turning to “QVQLVESGGGLVQAGGSLRLSCAASGFISYENAMGWYRQAPGKERELVAAISSGGSTNYADSVKGRFTISRDNAKNTVYFQMNSLKPEDTAVYYCAATLPGWYNEDDSWGQGTQVTVSS”, the “polyreactivity (PSR sort gate)” value is “low polyreactivity”. The result for “QVQLVESGGGLVQAGGSLRLSCAASGGNFEWNAMGWYRQAPGKERELVAAISNTGGSTSYADSVKGRFTISRDNAKNTVYLQMNSLKTEDTAVYYCNTVNRYEFGYWGQGSQVTVSS” reads “high polyreactivity”; that for “QVQLVESGGGLVQAGGSLRLSCAASGFIFQVYAMGWYRQAPGKERELVAGISRTGGSTYYADSVKGRFTISRDNAKNTVYLQMNSLKPEDTAVYYCAKPYWGYYGYFTHNYWGQGTQVTVSS”, “high polyreactivity”; that for “QDQLVESGGGLVQAGGSLRLSCAASGITFAGYARGWYRQAPGKERELVAAITGRGGSTYYADSVKGRFTISRDNAKNTVYLQMNSLKPEDTAVYYCAARSSKTGTGVRFGYWGQGTQVTVSS”, “high polyreactivity”.

On to “QVQLVESGGGLVQAGGSLRLSCAASGRIFTSNTMGWYRQAPGKESELVAAITCSGGSMYYADSVKGRFTISRDNAKNTVYLQMNSLKPEDTEVYDCAADTLGYHYWYDYWGQGTQVTVSS”, for which the “polyreactivity (PSR sort gate)” value is “low polyreactivity”.

As for “QVQLVESGGGLVQAGGSLRLSCAASGSTFRRNAMGWYRQAPGKERELVAAITWRGTSTYYADSVKGRFTISRDNAKNTVYLQMNSLKPEDTAVYYCAADRFVRYWGQGTQVTVSS”, the “polyreactivity (PSR sort gate)” value is listed as “high polyreactivity”. The result for “QVQLVESGGGLVQAGGILRLSCAPSGRIFKYYGMGWYRQAPGKERELVAAIYRGSSTNYAHSVKGRFTISRDNAKNTVYLQMNSLKPEDTAVYYCAKVGWSRRYYYWGQGTQVTVSS” reads “high polyreactivity”.

In the case of “QVQLVESGGGLVQAGGSLRLSCAASGLTFKYYAMGWYRQAPGKERELVAAISWRGGSTYYADSVKGRFTISRDNAKNTVYLQMNSLKPEDTAVYYCAAPGNNVRNAPRKRDYWGQGTQVTVSS”, the “polyreactivity (PSR sort gate)” value was “high polyreactivity”. The result for “QVQLVESGGGLVQAGGSLRLSCAASGRIFTYYAMGWYRQAPGKERELVATITRRGGRTYYADSVKGRFTISRDNAKNTVYLQMNSLKPEDTAVYYCAVVPETRYYYWGQGTLVTVSS” reads “high polyreactivity”; that for “QVQLVESGGGLVQAGGSLRLSCADSGSIFDFNAMGWYRQAPGKERELVAAITWSGGSTYYADSVKGRFTLSRDNAKNTVYLQMNSLKPEDTAVYYCAADSLYDDFYYWGQGTQVTVSS”, “low polyreactivity”; that for “QVQLVESGGGLVQAGGSLRLSCADSGRTFYGNAMGWYRQAPGKERELVAAISISGGSTYYADSVKGRFTISRDNAKNTVYIQMNSLKPEDTAVYYCNAQEYYYYPYVYDSDYWGQGTQVTVSS”, “low polyreactivity”.
